Measurements as given in patent publication US20260166139A1.
Several values for one entry are separate records, joined by “and”; a condition that tells them apart may be missing. Identical values can stand only once.

Legend:
human CTLA4 (human) [1] = biological target: human CTLA4 (human) (UniProt P16410); test: ELISA, coat human CTLA4 0.5 ug/ml; antibody 1:3 (start 1 ug/ml)
[2] = biological target: monkey CTLA4-hFc (monkey); test: ELISA, coat monkey CTLA4-hFc 0.25 ug/ml; antibody 1:9 (start 1 ug/ml)
human CTLA4 (human) [3] = biological target: human CTLA4 (human) (UniProt P16410); test: ELISA, coat human CTLA4 0.5 ug/ml; antibody 1:729 (start 1 ug/ml)
CTLA4-mFc [4] = test: competitive ELISA, CTLA4-mFc coated, competitor B7/2-His; antibody 1.5 µg/ml diluted 1:3
murine CTLA4 (murine) [5] = biological target: murine CTLA4 (murine) (UniProt P09793); test: ELISA on coated CTLA4, source Mouse (row of 8D2(Re))
human CTLA4 (human) [6] = biological target: human CTLA4 (human) (UniProt P16410); test: ELISA, coat human CTLA4 0.5 ug/ml; antibody 1:81 (start 1 ug/ml)
CTLA4-mFc [7] = test: competitive ELISA, competitor B7-2; control run with 8D2H2L15
CTLA4-mFc [8] = test: competitive ELISA, competitor B7-2; control run with 8D2(Re)
CTLA4-mFc [9] = test: competitive ELISA, competitor B7-2; control run with 8D2H2L2
CTLA4-mFc [10] = test: competition ELISA, coat B7/1-hFc 0.2 ug/ml (competitor), CTLA4-mFc 0.3 ug/ml detected; antibody 1:729 (start 3 ug/ml)
CTLA4-mFc [11] = test: competitive ELISA, B7/1-hFc coated (competitor), CTLA4-mFc added; antibody 5 µg/ml
[12] = biological target: monkey CTLA4-hFc (monkey); test: ELISA, coat monkey CTLA4-hFc 0.25 ug/ml; antibody 1:243 (start 1 ug/ml)
CTLA4-mFc [13] = test: competitive ELISA, competitor B7-2; control run with 8D2H3L3
CTLA4-mFc [14] = test: competitive ELISA, B7/1-hFc coated (competitor), CTLA4-mFc added; antibody 5 µg/ml diluted 1:3
CTLA4-mFc [15] = test: competitive ELISA, CTLA4-mFc coated, competitor B7/2-His; antibody 3 µg/ml diluted 1:81
CTLA4-mFc [16] = test: competitive ELISA, CTLA4-mFc coated, competitor B7/2-His; antibody 1 µg/ml diluted 1:3
human CTLA4 (human) [17] = biological target: human CTLA4 (human) (UniProt P16410); test: ELISA, coat human CTLA4 0.5 ug/ml; antibody 1:3 (start 1 ug/ml); remark: listed apart in the source
[18] = biological target: monkey CTLA4-hFc (monkey); test: ELISA on coated CTLA4, source Monkey (row of 8D2H3L3)
CTLA4-mFc [19] = test: competitive ELISA, CTLA4-mFc coated, competitor B7/2-His; antibody 1 µg/ml diluted 1:243
CTLA4-mFc [20] = test: competitive ELISA, CTLA4-mFc coated, competitor B7/2-His; antibody 3 µg/ml diluted 1:27
CTLA4-mFc [21] = test: competition ELISA, coat B7/1-hFc 0.2 ug/ml (competitor), CTLA4-mFc 0.3 ug/ml detected; antibody 1:27 (start 3 ug/ml)
human CTLA4 (human) [22] = biological target: human CTLA4 (human) (UniProt P16410); test: ELISA on coated CTLA4, source Human (row of 8D2H3L3)
human CTLA4 (human) [23] = biological target: human CTLA4 (human) (UniProt P16410); test: ELISA, coat human CTLA4 0.5 ug/ml; antibody 1 ug/ml
CTLA4-mFc [24] = test: competitive ELISA, competitor B7-2; control run with 8D2H1L1
CTLA4-mFc [25] = test: competitive ELISA, B7/1-hFc coated (competitor), CTLA4-mFc added; antibody 5 µg/ml diluted 1:729
murine CTLA4 (murine) [26] = biological target: murine CTLA4 (murine) (UniProt P09793); test: ELISA on coated CTLA4, source Mouse (row of 8D2H1L1)
human CTLA4 (human) [27] = biological target: human CTLA4 (human) (UniProt P16410); test: ELISA, coat human CTLA4 0.5 ug/ml; antibody 1:9 (start 1 ug/ml)

CTLA4-mFc, sequence (chain, as listed by the source limits assumed): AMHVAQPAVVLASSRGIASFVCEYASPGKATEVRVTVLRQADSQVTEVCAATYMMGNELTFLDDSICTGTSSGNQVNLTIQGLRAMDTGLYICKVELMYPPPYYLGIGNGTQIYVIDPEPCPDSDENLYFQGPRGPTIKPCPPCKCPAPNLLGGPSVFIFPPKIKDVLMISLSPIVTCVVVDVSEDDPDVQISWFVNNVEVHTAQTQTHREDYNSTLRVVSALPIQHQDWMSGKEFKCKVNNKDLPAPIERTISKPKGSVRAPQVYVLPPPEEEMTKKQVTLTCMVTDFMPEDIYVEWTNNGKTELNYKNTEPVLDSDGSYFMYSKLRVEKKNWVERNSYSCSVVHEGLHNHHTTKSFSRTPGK
human CTLA4 (human), sequence (P16410 36-161 limits assumed): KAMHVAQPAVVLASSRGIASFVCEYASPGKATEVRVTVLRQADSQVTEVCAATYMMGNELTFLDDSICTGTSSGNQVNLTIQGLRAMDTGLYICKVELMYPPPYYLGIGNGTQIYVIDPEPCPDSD
control antibody 11.2.1, sequence (VH): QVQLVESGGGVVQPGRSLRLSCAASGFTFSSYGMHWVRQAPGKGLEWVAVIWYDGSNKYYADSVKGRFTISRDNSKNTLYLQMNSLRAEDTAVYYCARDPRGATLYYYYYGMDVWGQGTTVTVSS
control antibody 11.2.1, sequence (VL): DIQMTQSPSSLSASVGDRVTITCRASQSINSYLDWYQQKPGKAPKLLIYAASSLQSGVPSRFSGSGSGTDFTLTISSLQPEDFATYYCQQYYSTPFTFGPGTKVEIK

absorbance at 450 nm (human CTLA4 (human) [1]): 3.5 and 3.48 | absorbance at 450 nm [2]: 1.11 and 1.05 | absorbance at 450 nm (human CTLA4 (human) [3]): 0.127 and 0.136 | absorbance at 450 nm (CTLA4-mFc [4]): 0.437 and 0.348 | EC50 (murine CTLA4 (murine) [5]): 0.023 nM | absorbance at 450 nm (human CTLA4 (human) [6]): 1.25 and 1.27 | EC50 (CTLA4-mFc [7]): 0.349 nM | EC50 (CTLA4-mFc [8]): 0.15 nM | EC50 (CTLA4-mFc [9]): 0.172 nM | absorbance at 450 nm (CTLA4-mFc [10]): 0.993 and 0.841 | absorbance at 450 nm (CTLA4-mFc [11]): 0.08 and 0.089 | absorbance at 450 nm [12]: 0.13 and 0.172 | EC50 (CTLA4-mFc [13]): 0.172 nM | absorbance at 450 nm (CTLA4-mFc [14]): 0.09 and 0.097 | absorbance at 450 nm (CTLA4-mFc [15]): 1.12 and 0.965 | absorbance at 450 nm (CTLA4-mFc [16]): 0.05 | absorbance at 450 nm (human CTLA4 (human) [17]): 1.82 and 2.05 | EC50 [18]: 0.075 nM | absorbance at 450 nm (CTLA4-mFc [19]): 0.84 and 0.85 | absorbance at 450 nm (CTLA4-mFc [20]): 0.676 and 0.585 | absorbance at 450 nm (CTLA4-mFc [21]): 0.597 and 0.579 | EC50 (human CTLA4 (human) [22]): 0.09 nM | absorbance at 450 nm (human CTLA4 (human) [23]): 3.58 and 3.55 | EC50 (CTLA4-mFc [24]): 0.15 nM | absorbance at 450 nm (CTLA4-mFc [25]): 0.909 and 0.793 | EC50 (murine CTLA4 (murine) [26]): 0.023 nM | absorbance at 450 nm (human CTLA4 (human) [27]): 1.29 and 1.41
Substance: control antibody 11.2.1
